From patent US12616760B2, “Synthetic cyclic peptide mimetics” (priority 2020, dated 2026)
Each block holds one compound with its values, some of them ahead of it. Numbered stars: 1 amine (or outer) side, 2 acyl side, 3 side chain; on linkers, the order of the positions; unused ones are H or OH. Square brackets hold non-standard residues; d marks the D form. Peptide text beside a SMILES is read from it. * marks the point of attachment. NOTA = O=C(O)CN1CCN(CC(=O)O)CCN(CC(=O)*)CC1; azaPhe = O=C(N(Cc1ccccc1)N[*:1])[*:2]; Nle = CCCC[C@H](N)C(=O)O; azaGly = NNC(=O)O

Assays:
Aβ species = test: PET imaging of ^64Cu-conjugates in 5×FAD mice; assay type: in vivo; details: for Aβ uptake relative to ^64Cu-1-NOTA / Aβ uptake (activity in the Aβ species): 6-month old 5×FAD mice; for Aβ uptake (activity in the Aβ species): 20 h post-injection
Protocol: (§1) Images were taken 3 weeks apart on the same 5×FAD mouse for ^64Cu-conjugate 43 and ^11C-PIB (FIGS. 1B and C) using the 2-(4′-[^11C]methylaminophenyl)-6-hydroxybenzothiazole (^11C-PIB) compound. Use of ^11C-PIB is limited to 1 h due to short half-life (t1/2=20.4 min). […] In control 44 day-old WT mouse at 1-day post-injection of ^64Cu-conjugate 43, brain uptake is very low (FIG. 1D). Non-transgenic littermates (labeled as wild type (WT) controls in the text and FIG. 1D) were housed in the same manner as 5×FAD mice and used for comparison.
(§2) Amyloid plaque detection was evaluated in 4.5-7-month-old Tg [5×FAD] mice and age-matched wild-type controls using the ^11C-PIB compound. 5×FAD mice carry both mutant human APP(695) with the Swedish (K670N, M671L), Florida ([…]), and London (V717I) Familial Alzheimer's Disease (FAD) mutations and human PS1 harboring two FAD mutations, M146L and L286V. 5×FAD mice develop plaque formation beginning at 2 months and cognitive deficits at 4-6 months. […] Amyloid beta of ^64Cu-conjugate 40 in hippocampus at 1 h post injection (1.285±0.034% ID/g) was similar to that of ^11C-PIB (1.038±0.028% ID/g. FIG. 1) in the cortex.
(§3) Red and blue colours represent respectively highest and zero uptake. […] Different intensity scales were used for PET images. […] Images were taken 3 weeks apart on different mouse for ^64Cu-43 and ^11C-PIB. Co-registration of experimental image data with brain mask to mouse atlas space was achieved to identify volumes of interest. 1. Striatum; 2. Cortex; 3. Hippocampus; 4. Thalamus; 5. Cerebellum; 6. Basal forebrain septum; 7. Hypothalamus; 8. Amygdala; 9. Brain stem; 10. Central gray; 11. […] Olfactory bulb; 13. Midbrain; 14.

Aβ40 = target: T1, Aβ40 (Homo sapiens, UniProt P05067); test: Thioflavin T (ThT) fluorescence assay of Aβ40 aggregation; assay type: biochemical; details: ThT, 10 μM soluble Aβ40
T1 construct: The extent of Aβ40 aggregation in the presence of increasing concentrations of azacyclopeptides
T1 sequence (P05067 672-711 limits assumed): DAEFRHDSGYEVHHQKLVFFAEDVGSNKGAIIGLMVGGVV
Protocol: Amyloid generation can be identified and quantified using the thioflavin T (ThT) fluorescence dye assay. […] Agents that bind and inhibit aggregation of Aβ diminish ThT fluorescence relative to untreated Aβ. The extent of Aβ40 aggregation in the presence of increasing concentrations of azacyclopeptides and azasulfurylcyclopeptide 55 was evaluated by the ThT assay. Fluorescence of Aβ40 that was aged for 48 h was used as control, defined as 0% anti-amyloidogenic activity, and compared with fluorescence in the presence of cyclic peptide mimics at increasing concentrations to measure anti-amyloidogenic activity.

CL2006 C. elegans strain = tested on: CL2006 C. elegans strain; design: species or system Caenorhabditis (C.) elegans; details: in vivo
Source text: Compound 3 was used in two in vivo transgenic Caenorhabditis (C.) elegans models expressing human Aβ42. The CL2006 C. elegans strain produces constitutively a body-wall muscle-specific Aβ42, the aggregation of which causes age-dependent paralysis, motility dysfunction and consequently short lifespan. The CL2355 strain expresses a temperature-inducible pan-neuronal Aβ42, accumulation of which leads to deficits in chemotaxis, associative learning and thrashing in liquid. The CL2006 mutant and control CL802 wild type worms had respective lifespans of 13.6 and 15.6 days (P<0.005, FIG. 3A).

[1] = PET imaging of ^64Cu-conjugates in 5×FAD mice; assay type: in vivo; details: mouse, in vivo, total radioactivity
Protocol: as §1, §2, §3

[2] = PET imaging and biodistribution, formulation tests in Balb/c mice; assay type: in vivo
Protocol: Different formulations were tested with the ^64Cu-1-NOTA conjugate to investigate the solubility of the PET tracer in vivo and select the best formulation for PET imaging studies. […] For further in vivo studies, 8% DMSO and 9% sucrose (for azaconjugates) were used.

Compound: [11CH3]Nc1ccc(-c2nc3ccc(O)cc3s2)cc1 [^11C-PIB, 2-(4′-[^11C]methylaminophenyl)-6-hydroxybenzothiazole, reference compound]
uptake in the cortex (Aβ species; 5×FAD mice, ^11C-PIB): 1.038±0.028 % ID/g

Compound: CCCC[C@@H]1NC(=O)[C@@H](CC(C)C)NC(=O)[C@H](CCCCNC(=O)CN2CCN(CC(=O)O)CCN(CC(=O)O)CC2)NC(=O)NNC(=O)[C@H](Cc2c[nH]cn2)NC(=O)[C@@H](Cc2c[nH]c3ccccc23)NC1=O [^64Cu-conjugate 43, metal not drawn] (cyclo([dL][Nle][dW]H[azaGly]K(NOTA)))
Aβ uptake relative to ^64Cu-1-NOTA (Aβ species): approximatively five times superior
Aβ uptake (activity in the Aβ species) (Aβ species): 2.030±0.056 % ID/g
uptake into the thalamus (Aβ species; Tg female 5×FAD AD mice, 9% sucrose in saline, 1-day post-injection): increased with age from 44 to 72 days
brain uptake (Aβ species; control 44 day-old WT mouse, 1-day post-injection): very low

Inhibition of amyloidogenic activity(%) (Aβ40; Aβ:peptide 1:1): 83.7%
Inhibition of amyloidogenic activity(%) (Aβ40; Aβ:peptide 1:5): 81.3%
Inhibition of amyloidogenic activity(%) (Aβ40; Aβ:peptide 1:10): 83.7%
Compound: CCCC[C@@H]1NC(=O)[C@@H](CC(C)C)NC(=O)[C@H](CCCCN)NC(=O)NNC(=O)[C@H](Cc2c[nH]cn2)NC(=O)[C@@H](Cc2c[nH]c3ccccc23)NC1=O [Compound 3, c(D-Leu-L-Nle-D-Trp-L-His-Gly*-L-Lys)] (cyclo(K[dL][Nle][dW]H[azaGly]))
toxicity and longevity (CL2006 C. elegans strain): no toxicity and no influence on wild type CL802 worm longevity

Compound: CCCC[C@@H]1NC(=O)N(Cc2ccccc2)NC(=O)[C@H](CCCCNC(=O)CN2CCN(CC(=O)O)CCN(CC(=O)O)CC2)NC(=O)[C@@H](CO)NC(=O)[C@H](Cc2c[nH]cn2)NC(=O)[C@@H](Cc2c[nH]c3ccccc23)NC1=O [^64Cu-conjugate 40, metal not drawn] (cyclo([azaPhe][Nle][dW]H[dS]K(NOTA)))
time of highest activity value in Aβ species (Aβ species; 5×FAD mice, post injection): 1 days
Aβ uptake relative to ^64Cu-1-NOTA (Aβ species): approximatively five times superior
Aβ uptake (activity in the Aβ species) (Aβ species): 2.102±0.059 % ID/g
tissue uptake ([1]; 5×FAD mice at 4.5 months, read-out: accumulation of activity in the Aβ species): 0.165 ± 0.005 %ID/g
tissue uptake at 1 h ([1]; 5×FAD mice, 1 h post injection, read-out: uptake in hippocampus): 1.28 ± 0.034 %ID/g
tissue uptake at 20 h ([1]; 6-month old 5×FAD mice, 20 h post-injection, read-out: Aβ uptake (activity in the Aβ species)): 2.1 ± 0.059 %ID/g

Compound: CCCC[C@@H]1NC(=O)[C@@H](CC(C)C)NC(=O)[C@H](CCCCNC(=O)CN2CCN(CC(=O)O)CCN(CC(=O)O)CC2)NC(=O)[C@@H](CO)NC(=O)[C@H](Cc2c[nH]cn2)NC(=O)[C@@H](Cc2c[nH]c3ccccc23)NC1=O [^64Cu-1-NOTA, metal not drawn] (cyclo([dL][Nle][dW]H[dS]K(NOTA)))
Aβ uptake (activity in the Aβ species) (Aβ species): 0.430±0.010 % ID/g
organ uptake ([2]; Intra-lipid (20% IV fat-emulsion) formulations): lower uptake in the lungs and a higher uptake in the gastrointestinal tract and gallbladder
organ uptake ([2]; formulated in 8% DMSO): High lung and liver uptake
